Molecular target: T1, Fab fragment of humanized monoclonal IgG (Infliximab) (Homo sapiens, UniProt P01834+P01857)
T1 construct: fragmented into a Fab fragment and an Fc fragment by using papain, and the Fc fragment and Fab fragment were purified; purchased Mitsubishi Tanabe Pharma Corporation Remicade (Infliximab)
Assay: Residual Fab-binding activity of GB1#-N08K after alkali treatment (Biacore SPR)
Details: 15 mM NaOH final (0.1 mL of 45 mM NaOH added to 0.2 mL of 20 μM peptide), 25° C., 2 hours; ratio to before treatment as 100%; N=4

T1 sequence (P01857 with tags, fused parts or gaps limits assumed, other chains not shown): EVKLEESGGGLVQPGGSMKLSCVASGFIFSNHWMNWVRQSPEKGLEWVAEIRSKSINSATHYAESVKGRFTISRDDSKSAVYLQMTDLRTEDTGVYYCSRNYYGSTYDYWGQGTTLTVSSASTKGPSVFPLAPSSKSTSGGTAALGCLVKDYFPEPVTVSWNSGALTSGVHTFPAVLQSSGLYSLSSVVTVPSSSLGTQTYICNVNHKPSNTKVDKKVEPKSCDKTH

Q: With “GB1#-N08A: Comparative example: GB1#-Cont (SEQ ID NO: 4) with mutation N08A; amino acid SEQ ID NO: 41 (TTYKLILAGKTLTGYTTTIAVDAATAEKVLKQFANDNGVDGEWTYDDATKTFTVTE; Altered SpG)” as the substance, how does the “residual binding activity to Fab after alkali treatment” value read?
A: 68%

Q: “GB1#-N08K: GB1#-Cont (SEQ ID NO: 4), strong binding ability to Fab, with mutation N08K introduced; amino acid SEQ ID NO: 32 (TTYKLILKGKTLTGYTTTIAVDAATAEKVLKQFANDNGVDGEWTYDDATKTFTVTE; oligo DNA)” was tested. Which “residual binding activity to Fab after alkali treatment” value did it give?
A: 80%
